The values below are quoted from earlier work in PMC8467547.

One series deals with IFNAR1 (Homo sapiens) (UniProt P17181).
A further series addresses IFNAR2 (Homo sapiens) (UniProt P48551).
UniProt P48551, sequence (P48551 27-243): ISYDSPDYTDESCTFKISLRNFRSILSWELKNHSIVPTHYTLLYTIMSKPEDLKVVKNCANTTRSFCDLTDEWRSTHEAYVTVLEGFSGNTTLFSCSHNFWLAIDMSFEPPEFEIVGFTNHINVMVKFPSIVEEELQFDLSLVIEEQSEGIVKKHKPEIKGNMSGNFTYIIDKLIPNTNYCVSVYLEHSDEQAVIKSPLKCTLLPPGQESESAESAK

UniProt P17181, sequence (P17181 28-436): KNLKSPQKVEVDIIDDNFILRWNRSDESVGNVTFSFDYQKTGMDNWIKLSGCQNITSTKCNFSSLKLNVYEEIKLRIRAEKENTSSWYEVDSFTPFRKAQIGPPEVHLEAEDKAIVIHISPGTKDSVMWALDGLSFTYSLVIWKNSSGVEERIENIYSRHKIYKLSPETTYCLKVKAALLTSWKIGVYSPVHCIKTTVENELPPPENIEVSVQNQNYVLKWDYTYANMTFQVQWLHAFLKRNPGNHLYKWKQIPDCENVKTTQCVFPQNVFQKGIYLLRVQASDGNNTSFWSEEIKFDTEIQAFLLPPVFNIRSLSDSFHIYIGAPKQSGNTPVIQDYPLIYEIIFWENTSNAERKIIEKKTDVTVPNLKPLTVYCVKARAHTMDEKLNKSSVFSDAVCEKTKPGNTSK

Usually Kd stands for the concentration at which binding is half-saturated. Take IFN-beta (from UniProt P01574): the values for the dissociation constant (Kd) with IFNAR1 (Homo sapiens) and in the series with IFNAR2 (Homo sapiens) were 0.1 µM and 0.0002 µM, respectively.
